The record followed here is the DeepSol protein solubility set.

This data set can be described thus: soluble on expression in E. coli; label from the status in PepcDB or PDB records.
With “MKHFSVKRLLGLSSVLLVTLGASMHAQSYLPKHESVTLKNGLQVVSVPLENKTGVIEVDVLYKVGSRNETMGKSGIAHMLEHLNFKSTKNLKAGEFDKIVKRFGGVSNASTSFDITRYFIKTSQANLDKSLELFAETMGSLNLKEDEFLPERQVVAEERRWRTDNSPIGMLYFRFFNTAYVYHPYHWTPIGFMDDIQNWTLKDIKKFHSLYYQPKNAIVLVVGDVNSQKVFELSKKHFESLKNLDEKAIPTPYMKEPKQDGARTAVVHKDGVHLEWVALGYKVPAFKHKDQVALDALSRLLGEGKSSWLQSELVDKKRLASQAFSHNMQLQDESVFLFIAGGNPNVKAEALQKEIVALLEKLKKGEITQAELDKLKINQKADFISNLESSSDVAGLFADYLVQNDIQGLTDYQRQFLDLKVSDLVRVANEYFKDTQSTTVFLKP”, the “soluble on expression in E. coli” value is recorded as “not soluble”.
With “MKHLFTRIFLFHLLLIGTVQVTAQNKKSGNPILPGFHADPEVLYSHQTKRYYIYPTSDGFPGWGGSYFKVFSSKNLKTWKEETVILEMGKNVSWANGNAWAPCIEEKKIDGKYKYFFYYSANPTTNKGKQIGVAVADSPTGPFTDLGKPIITSSPTGRGQQIDVDVFTDPVSGKSYLYWGNGYMAGAELNDDMLSIKEETTVVLTPKGGTLQTYAYREAPYVIYRKGIYYFFWSVDDTGSPNYHVVYGTAQSPLGPIEVAKEPIVLIQNPKEEIYGPAHNSILQVPGKDKWYIVYHRINKNHLNDGPGWHREVCIDRMEFNPDGTIKQVIPTP”, the “soluble on expression in E. coli” value is listed as “not soluble”.
In the case of “MKHLIVVPPRMNLYIKKNLAINDIFREFVANEDLWPYSIDESILDLTHTWRLFGKTPRAVAQLIQHTIRHRLGLYTTVGIGDNPLQAKIALDVYAKHDPNLIGQISYLEHHHHHH”, the “soluble on expression in E. coli” value was “not soluble”.
For “MKHLTASEVRSTFINFFREKKEHTYVHSSSVIPHDDPTLLFANAGMNQFKPLFLGIADPNSDLAKLKRAVNTQKCIRAGGKHNDLDDVGKDVYHHTYFEMLGNWSFGDYFKKEIITWAWELLTTVYGIPAERLYVSVFGGDEANGVPADSEARDIWRSVGVPDERILNFGMKDNFWEMGDVGPCGPCSEIHYDRIGNRDASHLVNADDPMVVEIWNLVFIQFNREEGGVLKPLPAKHIDCGLGLERLIAVMQDKTSNYDTDIFQPIFEAIHKGSGVRAYTGFIGDEDKDGVDMAYRVVADHVRTLTIALSDGGRPDNSGRGYVLRRILRRGVRYASEKLNAQPGFFASLVPVVISILGETFPELSRDPVTVMDIINDEEKQFLKTLSRGRVLFQRAVQSLPEGTMTFPGDVSWRLYDTYGFPADLTQLMAEEKGLSVDNTAFEEARRKAIETSSAGTGKFRDTLDLDVHALAELQQKGVPTTDDSPKYAYTFTGEGSDAVYKFEPCVGKILAIRRDGKFVDQLAAGEEGAILLDRTNFYAEQGGQIYDVGVLTKVNDESNEFNVSNCQVRGGYIVLVGSAEGSFSVGDQVNERFDEDRKQLIMKNHTGTHVLNYALRKVLADSDQKGSLVAPDRMRFDFTNKAGMTVQQVKKAEEYAQQLIDTKGQVYAKNSPLGEAKKVKGLRAMFDETYPDPVRVVAVGTPVEQLLQNPDAEEGQNTTVEFCGGTHLQNVSHIGRIVIASEEAIAKGIRRIVALTGPEAERAIARADRLTARLEEESKHADKKDELLANKDKFKALQKKIQEIVDEANGAQLPYWRKDSIREKAKAIQKTLDGYTKAQQAAVAEKVLGEAKELAAVAEQPTVLVHVFAANANSKAIDNALKLLKDTKAVMAFSVNEDSGKVLCLAKVDKSLVSNGLKANEWVNEVCTVLGGKGGGKDANAQLTGENVDKLDAAVELAQKFALAAIN”, the “soluble on expression in E. coli” value is given as “soluble”.
Take “MKHVPIRMCVACRRRRPKGELLRILVTEEGFVIDPSGKRPGRGAYVCPDSPECRSEKRLRRFAGAKARALAEALAAYLGGEDGQGKDLPAG”: the “soluble on expression in E. coli” value is listed as “soluble”.
On to “MKIAIIGAGIGGLTAAALLQEQGHTIKVFEKNESVKEIGAGIGIGDNVLKKLGNHDLAKGIKNAGQILSTMTVLDDKDRLLTTVKLKSNTLNVTLPRQTLIDIIKSYVKDDVIFTNHEVTHIDNETDKVTIHFAEQESEAFDLCIGADGIHSKVRQSVNADSKVLYQGYTCFRGLIDDIDLKHPDCAKEYWGRKGRVGIVPLLNNQAYWFITINSKENNHKYSSFGKPHLQAYFNHYPNEVREILDKQSETGILLHNIYDLKPLKSFVYGRTILLGDAAHATTPNMGQGAGQAMEDAIVLVNCFNAYDFEKALQRYDKIRVKHTAKVIKRSRKIGKIAQYRSRLFVAVRNRIMKMMPNALAAGQTKFLYKSKEKLEHHHHHH”, for which the “soluble on expression in E. coli” value was “soluble”.
On to “MKIAIIGYSGSGKSTLANFLGQHYNCEVLHLDKIHFTSNWQERTVDEMTDDISTFMLQSDWIIEGNYSACLYEERMREADCIVYFNFNRVNCLYRAFRRYLTYRGKTRPSMAEG”, for which the “soluble on expression in E. coli” value is given as “not soluble”.
With “MKIALINENSQAAKNGIIYDALTTVTDKHGYQVFNYGMYGTEGESQLTYVQNGLLASILLTTKAADFVVTGCGTGVGAMLALNSFPGVTCGFASEPTEAYLFSQINGGNALSIPFAKGFGWGAELNLTLIFERLFAEPMGGGYPKERAIPEQRNARILSDLKKITYRDLLAIVKDIDQDFLKETISGAHFQEYFFANAEPSELVTYLKSVLEQ”, the “soluble on expression in E. coli” value is “not soluble”.
In the case of “MKIAVLGASGWIGGTILNEALSRGHEVVALVRDPSKLGETAAEVRSVDLAKPLTADTFAGVDVLIASVGGRADLNHSLVAKTVNNLLALLPLAKVPRLLWVGGAGSLEVAPGVTLVSSPDFPPAYKDEALAQGEALKAFRAANTAVNWTFVSPAAEIYPGESEGLYRLGGDSFFTDAKGRSRISVTDYAKAMLDEAEKGAHPNQRISVAYLEHHHHHH”, the “soluble on expression in E. coli” value is “soluble”.
Turning to “MKIGFIGTGSMGTILIESFLESSALTAEQIVITNRTQEKADALARRYPGLSVVDRPEEVVQQTDCFFVCVKPMQFHRVLMDIRPHCSANKLLVSITSPISIAQLENSVDCKVARAIPSILNRACAGSTLVSFSERCLEEDRSFLCGLLGTISEPLLIEEKITRVSSDIVSCGPAFFSYLTQRFIEAAVRQTAISEEDATALATEMLIGIGKLLDQELYTLPSLQKRVCVPGGITGEGIRVLEEDVGHMFDRLFQKTHQKYYHEQEKISSQLTLKGMAGDPNSLEHHHHHH”, the “soluble on expression in E. coli” value is reported as “not soluble”.
Then “MKIGIVIPAHNEEQHLSACLQSIQQAIQHTGHEQVEILVVLDSCTDQSRSVVESHQVNWIECNFACVGKARDLGIRQLIDQGVIWVACTDADTIVDSDWILCQMLHQPTDAICGVVTLDDLSHLSVQQQQKYLAHYQDSMDHQHIHGANLSFSAEAYIQAGGFEPIPCHEDVSLIEKFIKQCCKVTRSNLEHHHHHH”, with “not soluble”.
Turning to “MKIKEVRITGFRSYKDNTNVSGFSPRSNVVVGRNGSGKSNFFHAIQFVLSDEYAHLKEEQRLGLLHESTGPKVAHARVEITFDNSEKRLMAFENSEVKIVRQVGKKKDQYYIDNKMVPRAEVVNLMESAGFSRSNPYYIVKQGKINELATSPDAYKLKLLREVAGTRVYDERKEESLKILKETKMKTEKIQGLLKYIDERLQTLENEKEDLKEYQKLDKTKRSVEYTMYDNTNKEAIKEKTKLDEQKVELNQKDNNVKSQLNDVIAEMAKLKTDKKKLESLGRGLREDKETLQAEETKMVEEKMTLKLEIDSLNEENTRERQGRQNAEHSLQGVGDEIFKNEEELDTIKPEYAKLLEEESRLKTDIRIDESRAKEILAKQGQRSQFSSVDDRDKFLRNEIRRISGLIADNKEREETIQKELADVEREDEKLNNEIQSISRTIDENRYEMDTFAAKSTSLKQEYDAAYVAQQTAAREEKAIRDKIGNTEQDISAANDQLRRIVARPVYNGITGVRKVIEEFKHDNRNGQHDDVINGYYGTVIELAEVPDMFRTAVEVIAQNRLFYHVVETDRIATKILRKFNEMQLPGEINFFPMNRVSAPRQRDLSNNSNARPMSDVIDYEVQYDKVFKSITANVIIVRTLDQAARDLRNEGFDVVSVDGDQMSKKGVMTGGFIDKKRSKLELHTQKDRFTKELAELQKSLAEAEKMVRERTQEAEKIRNRMQQHENQIGDFHRKHRELTEAKNAISQQFYMVTSTKEPKKDQLLGIKNHLRELLAQKENFEQEIGSNMSSQLTSDEEQTVKKLRKKVDEMTKQLATVSRRRMDLMHRKNAIENLLTKKLYKTKESLTAKNPKFFLQRVDDISDNERRHKLENANAQLTSLLTRMESTRKQLATAISELQDYETKEKALQINIDNVLEQQRDLEKQQADFQLQYDKITAKEDEVKQKREDSLKKLILSRYSIKTRKNQFSYEISDSEEVGAKREPIEHRKLKISTFCLEYRAKLEKVHSNMRLLGALPTDTFSKWQNVKPRELEKKLLECVNELKKYENVNKKALDQYMTASSQKEELTKRMAEQKKSEDSIEELLKVLENRKYEAIDLTFKQVKKNFEQVFKQLVPHGRGKMQMRAREQRDDEEGINSVELYEGISVLVSFVSDDGDSETREMTQLSGGQKSLVALAIIFSIQKCDPAPFYLFDEIDAALDAQHRKSVADMIQSLSDQAQFVTTTFRPELLATAEKFYGVRFRNKVSHIDSVTREQAYDFVEDDTTHG”, the “soluble on expression in E. coli” value was “not soluble”.
Take “MKIKTILTPVTCALLISFSAHATNADNYKNVINRTGAPQYMKDYDYDDHQRFNPFFDLGAWHGHLLPDGPNTMGGFPGVALLTEEYINFMASNFDRLTVWQDGKKVNFTLEAYNIPGALVQKLTAKDVQVEMTLRFATPRTSLLETKIISNKPLDLVWDGELLEKLEAKEGKPLSDKTIAGEYPDYQRKISATRDGLKVTFGKVRATWDLLTSGESEYQVHKSLPVQTEINGNRFTSKAHINGSTTLYTTYSHLLTSQEVSKEQMQIRDILARPAFYLTASQQRWEEYLKKGLTNPDATPEQTRVAVKAIETLNGNWRSPGGAVKYNTVTPSVTGRWFSGNQTWPWDTWKQAFAMAHFNPDIAKENIRAVFSWQIQPGDSVRPQDVGFVPDLIAWNLSPERGGDGGNWNERNTKPSLAAWSVMEVYNVTQDKTWVAEMYPKLVAYHDWWLRNRDHNGNGVPEYGATRDKAHNTESGEMLFTVKKGNKEETQSGLNNYARVVEKGQYDSLEIPAQVAASWESGRDDAAVFGFIDKEQLDKYVASGGKRSDWTVKFAENRSQDGTLLGYSLLQESVDQASYMYSDNHYLAEMATILGKPEEAKRYRQLAQQLADYINTCMFDPATQYFYDVRIEDKPLANGCAGKPIVERGKGPEGWSPLFNGAATQANADAVVKVMLDPKEFNTFVPLGTAALTNPAFGADIYWRGRVWVDQFWFGLKGMERYGYRDDALKLADTFFRHAKGLTADGPIQENYNPLTGAQQGAPNFSWSAAHFYMLYNDFFRKQ”: the “soluble on expression in E. coli” value is recorded as “not soluble”.
Take “MKINLEELKFGTELIKRGFAKMQKGGVIMDVTNAEQAAIAEEAGAVAVMALHKVPADIRAAGGVARMADPKKIQEIIDAVTIPVMAKCRIGHIAEARALEALGVDMIDESEVLTPADVFFHIDKRKFVVPFVCGARSLGEAVRRIWEGAAMIRTKGEAGTGNVVEAVKHMRLINRAIFELQKMNEERIYGVAEKYASRYAELASRVREEMGLESVSRNDVVFEEYTLGEIIDGIYEILLEIRELGRLPVVNFAAGGVATPADAALMMQLGADGVFVGSGIFKSSNPPEYAKAIVEAVQHYDEPEVVAEVSKGLGEAMKGLDVFKLSEDERLQTRGL”: the “soluble on expression in E. coli” value is given as “not soluble”.
Turning to “MKIQDYTKQMVDEKSFIDMAYTLLNDKGETMNLYDIIDEFRALGDYEYEEIENRVVQFYTDLNTDGRFLNVGENLWGLRDWYSVDDIEEKIAPTIQKFDILDADDEEDQNLKLLGEDEMDDDDDIPAQTDDQEELNDPEDEQVEEEINHSDIVIEEDEDELDEDEEVFEDEEDFND”, the “soluble on expression in E. coli” value is “not soluble”.
